According to article PMC2632919 (Nucleic Acids Research, 2008):

Columns and labels:
AUC = biological target: the molecule itself; assay: AUC
[1] = biological target: T1, HmtSSB (human mitochondrial SSB) (Homo sapiens, UniProt Q04837 17-148); assay: fluorescence anisotropy
T1 sequence: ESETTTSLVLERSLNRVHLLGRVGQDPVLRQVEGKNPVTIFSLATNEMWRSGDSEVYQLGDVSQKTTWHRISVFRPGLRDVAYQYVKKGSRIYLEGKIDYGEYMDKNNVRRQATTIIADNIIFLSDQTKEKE

[2] = biological target: T1, HmtSSB (human mitochondrial SSB); assay: fluorescence anisotropy; remark: listed apart in the source

B1: human mitochondrial single-stranded DNA-binding protein (HmtSSB) (natural protein, UniProt Q04837 17-148, looked up)
chain: T1 sequence
AUC
  stoichiometry N: 4

B2: 17-mer (ssDNA)
DNA: GTTTTCCCAGTCACGAC
[1]
  apparent K (half saturation): 19.4 ± 4 nM
[2]
  Kd: 19.2 ± 3.1 nM
